Assay results reported in publication PMC3470569, “Probing Subunit-Subunit Interactions in the Yeast Vacuolar ATPase by Peptide Arrays” (PLoS ONE, 2012).
Ends that are not written are not given here. cellulose = not defined here

T1: subunit G (Vma10p) with FLAG tag (S. cerevisiae, UniProt P48836 1-114)
T1 construct: V-ATPase subunit G (Vma10p), S. cerevisiae, 114 amino acids; also called G-FLAG; FLAG-G; source: E. coli, from the bicistronic MBP-FLAG-G / E construct, purified (amylose, PreScission cleavage of MBP, DEAE, amylose); not shown: MBP, N-terminal, cleaved
T1 sequence (looked up): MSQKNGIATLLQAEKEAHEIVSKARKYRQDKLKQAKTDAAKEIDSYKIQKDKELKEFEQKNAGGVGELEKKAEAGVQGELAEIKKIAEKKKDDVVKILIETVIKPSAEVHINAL

T2: full-length subunit H (Vma13p), N-terminal MBP fusion (S. cerevisiae, UniProt P41807 1-478)
T2 construct: V-ATPase subunit H (Vma13p), S. cerevisiae, 478 amino acids; Construct provided by the laboratory of Dr. Patricia Kane; also called MBP-H; source: E. coli, purified (amylose column; ultrafiltration or size exclusion chromatography); not shown: MBP, N-terminal, kept
T2 sequence (looked up): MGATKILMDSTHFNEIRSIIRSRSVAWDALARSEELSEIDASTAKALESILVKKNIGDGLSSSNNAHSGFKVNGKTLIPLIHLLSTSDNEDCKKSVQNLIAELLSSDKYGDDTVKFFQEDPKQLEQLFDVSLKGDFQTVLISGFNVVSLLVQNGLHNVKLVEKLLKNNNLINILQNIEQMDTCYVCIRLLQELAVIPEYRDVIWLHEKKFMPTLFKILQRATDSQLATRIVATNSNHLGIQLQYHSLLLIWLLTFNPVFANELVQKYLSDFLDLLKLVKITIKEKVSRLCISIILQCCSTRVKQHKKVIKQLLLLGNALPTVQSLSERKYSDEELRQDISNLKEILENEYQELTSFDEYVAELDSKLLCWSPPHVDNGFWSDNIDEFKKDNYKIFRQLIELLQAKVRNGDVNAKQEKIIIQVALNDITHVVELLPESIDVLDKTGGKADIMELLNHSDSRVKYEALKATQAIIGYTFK

T3: C-terminal domain of subunit H (HCT), N-terminal MBP fusion (S. cerevisiae, UniProt P41807 353-478)
T3 construct: V-ATPase subunit H (Vma13p), S. cerevisiae, C-terminal globular domain 353-478 (126 amino acids); Construct provided by the laboratory of Dr. Patricia Kane; also called MBP-HCT; source: E. coli, purified (amylose column; ultrafiltration or size exclusion chromatography); not shown: MBP, N-terminal, kept
T3 sequence (looked up): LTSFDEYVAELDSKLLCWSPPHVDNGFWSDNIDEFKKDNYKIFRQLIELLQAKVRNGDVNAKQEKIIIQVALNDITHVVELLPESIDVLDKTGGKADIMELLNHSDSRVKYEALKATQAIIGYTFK

T4: subunit E (Vma4p), N-terminal MBP fusion (S. cerevisiae, UniProt P22203 1-233)
T4 construct: V-ATPase subunit E (Vma4p), S. cerevisiae, 233 amino acids; also called MBP-E; source: E. coli, purified (amylose column); not shown: MBP, N-terminal, kept
T4 sequence (looked up): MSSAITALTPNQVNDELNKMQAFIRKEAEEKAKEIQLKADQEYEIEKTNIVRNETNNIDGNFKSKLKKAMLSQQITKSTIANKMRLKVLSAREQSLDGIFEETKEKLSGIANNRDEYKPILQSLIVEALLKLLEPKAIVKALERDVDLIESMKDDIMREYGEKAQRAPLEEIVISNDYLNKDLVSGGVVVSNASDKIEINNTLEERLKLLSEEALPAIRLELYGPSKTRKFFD

T5: EG heterodimer (untagged subunit E with FLAG-tagged subunit G) (S. cerevisiae, UniProt P22203 1-233; P48836 1-114)
T5 construct: V-ATPase subunit E (Vma4p), S. cerevisiae, tagless; V-ATPase subunit G (Vma10p), S. cerevisiae; also called EG-FLAG; source: E. coli, co-expressed from one bicistronic plasmid, purified (amylose, PreScission cleavage of MBP, DEAE, amylose); not shown: MBP, N-terminal, cleaved; FLAG, N-terminal, kept
T5 sequence (looked up) 1: T4 sequence (looked up)
T5 sequence (looked up) 2: T1 sequence (looked up)

B1: a(371-390) (peptide, UniProt P32563 371-390, looked up)
peptide: LDTNHTPPTFHRTNKFTAGF-cellulose
modifications: reading uncertain
notes: source: synthetic peptide, spotted on glass slide array (Intavis)
B2: D(161-180) (peptide, UniProt P32610 161-180, looked up)
peptide: EVIKVTNRRVNAIEHVIIPR-cellulose
modifications: reading uncertain
notes: as for B1
B3: H(271-290) (peptide, UniProt P41807 271-290, looked up)
peptide: FLDLLKLVKITIKEKVSRLC-cellulose
modifications: reading uncertain
notes: as for B1
B4: B(349-368) (peptide, UniProt P16140 349-368, looked up)
peptide: LTGYITEGQIFVDRQLHNKG-cellulose
modifications: reading uncertain
notes: as for B1
B5: F(91-110) (peptide, UniProt P39111 91-110, looked up)
peptide: ILEIPSKDHPYDPEKDSVLK-cellulose
modifications: reading uncertain
notes: V-ATPase subunit F, S. cerevisiae, residues 91-110; source: synthetic peptide, spotted on glass slide array (Intavis)
B6: H(221-240) (peptide, UniProt P41807 221-240, looked up)
peptide: ATDSQLATRIVATNSNHLGI-cellulose
modifications: reading uncertain
notes: as for B1
B7: a(41-60) (peptide, UniProt P32563 41-60, looked up)
peptide: FRDLNSKVRAFQRTFVNEIR-cellulose
modifications: reading uncertain
notes: V-ATPase Vo subunit a (gene Vph1), S. cerevisiae, residues 41-60; source: synthetic peptide, spotted on glass slide array (Intavis)
B8: d(21-40) (peptide, UniProt P32366 21-40, looked up)
peptide: RNGLLSNNQYINLTQCDTLE-cellulose
modifications: reading uncertain
notes: V-ATPase Vo subunit d, S. cerevisiae, residues 21-40; source: synthetic peptide, spotted on glass slide array (Intavis)
B9: C(321-340) (peptide, UniProt P31412 321-340, looked up)
peptide: LPPHFNIKIIAVPPKNLSKC-cellulose
modifications: reading uncertain
notes: as for B1
B10: F(41-60) (peptide, UniProt P39111 41-60, looked up)
peptide: QEGKTTKEEITDKFNHFTEE-cellulose
modifications: reading uncertain
notes: V-ATPase subunit F, S. cerevisiae, residues 41-60; source: synthetic peptide, spotted on glass slide array (Intavis)
B11: a(51-70) (peptide, UniProt P32563 51-70, looked up)
peptide: FQRTFVNEIRRLDNVERQYR-cellulose
modifications: reading uncertain
notes: V-ATPase Vo subunit a (gene Vph1), S. cerevisiae, residues 51-70; source: synthetic peptide, spotted on glass slide array (Intavis)
B12: G(71-90) (peptide, UniProt P48836 71-90, looked up)
peptide: KAEAGVQGELAEIKKIAEKK-cellulose
modifications: reading uncertain
notes: V-ATPase subunit G (Vma10p), S. cerevisiae, residues 71-90; source: synthetic peptide, spotted on glass slide array (Intavis)
B13: d(131-150) (peptide, UniProt P32366 131-150, looked up)
peptide: GWFDTLPTLSVATDLESLYE-cellulose
modifications: reading uncertain
notes: as for B1
B14: d(51-70) (peptide, UniProt P32366 51-70, looked up)
peptide: YGNFLSSVSSESLTTSLIQE-cellulose
modifications: reading uncertain
notes: V-ATPase Vo subunit d, S. cerevisiae, residues 51-70; source: synthetic peptide, spotted on glass slide array (Intavis)
B15: a(521-540) (peptide, UniProt P32563 521-540, looked up)
peptide: AWHGTENALLFSNSYKMKLS-cellulose
modifications: reading uncertain
notes: as for B1
B16: d(261-280) (peptide, UniProt P32366 261-280, looked up)
peptide: DFEGVRAALANVYEYRGFLE-cellulose
modifications: reading uncertain
notes: as for B1
B17: H(331) (peptide, UniProt P41807 331-350, looked up)
peptide: SDEELRQDISNLKEILENEY-cellulose
modifications: reading uncertain
notes: V-ATPase subunit H (Vma13p), S. cerevisiae; source: synthetic peptide, spotted on glass slide array (Intavis)
B18: a(281-300) (peptide, UniProt P32563 281-300, looked up)
peptide: LSDLYTVLKTTSTTLESELY-cellulose
modifications: reading uncertain
notes: as for B1
B19: d(181-200) (peptide, UniProt P32366 181-200, looked up)
peptide: RNKLYKAYLEDFYNFVTEEI-cellulose
modifications: reading uncertain
notes: as for B1
B20: a(151-170) (peptide, UniProt P32563 151-170, looked up)
peptide: FFLKGDNTDSTSYMDEDMID-cellulose
modifications: reading uncertain
notes: as for B1
B21: a(131-150) (peptide, UniProt P32563 131-150, looked up)
peptide: IEVQKNDLEQYRFILQSGDE-cellulose
modifications: reading uncertain
notes: as for B1
B22: a(681-700) (peptide, UniProt P32563 681-700, looked up)
peptide: EAQQLISAMDADDAEEEEVG-cellulose
modifications: reading uncertain
notes: as for B1
B23: B(421) (peptide, UniProt P16140 421-440, looked up)
peptide: GEEALSIEDKLSLEFLEKFE-cellulose
modifications: reading uncertain
notes: V-ATPase subunit B, S. cerevisiae; source: synthetic peptide, spotted on glass slide array (Intavis)
B24: D(181-200) (peptide, UniProt P32610 181-200, looked up)
peptide: TENTIAYINSELDELDREEF-cellulose
modifications: reading uncertain
notes: as for B1
B25: a(291-310) (peptide, UniProt P32563 291-310, looked up)
peptide: TSTTLESELYAIAKELDSWF-cellulose
modifications: reading uncertain
notes: as for B1
B26: H(181-200) (peptide, UniProt P41807 181-200, looked up)
peptide: DTCYVCIRLLQELAVIPEYR-cellulose
modifications: cysteine pairing not given here; reading uncertain
notes: as for B1
B27: H(91-110) (peptide, UniProt P41807 91-110, looked up)
peptide: DCKKSVQNLIAELLSSDKYG-cellulose
modifications: reading uncertain
notes: V-ATPase subunit H (Vma13p), S. cerevisiae, residues 91-110; source: synthetic peptide, spotted on glass slide array (Intavis)
B28: E(51-70) (peptide, UniProt P22203 51-70, looked up)
peptide: VRNETNNIDGNFKSKLKKAM-cellulose
modifications: reading uncertain
notes: V-ATPase subunit E (Vma4p), S. cerevisiae, residues 51-70; source: synthetic peptide, spotted on glass slide array (Intavis)

What follows are binders tested against T1, subunit G (Vma10p) with FLAG tag (assay: peptide or protein array; 20-mer peptides linked at their C-terminal end to cellulose and spotted in duplicate on glass slides; blocked in 2% nonfat milk; purified probe at 4 µM in TBS for 1 hour at 4°C; bound probe detected through MBP or FLAG with HRP-coupled antibody (chemiluminescence); hits by ANOVA (p 0.05, Bonferroni) and HCL in MeV, score of at least 1 in 75% of the spots). Details: both partners purified.

binding result | Binder
binds | B1
binds | B2
binds | B3
binds | B4
binds | B5
binds | B6

The binders below were run against T2, full-length subunit H (Vma13p), … in the same assay as above. Details: both partners purified.

binding result | Binder
binds | B7
binds | B8
binds | B9
binds | B10
binds | B11
binds | B12
binds | B13
binds | B3
binds | B14
binds | B4
binds | B5

These binders were tested against T3, C-terminal domain of subunit H (HCT), … in the same assay as above. Details: both partners purified.

binding result | Binder
binds | B7
binds | B9
binds | B1
binds | B11
binds | B15
binds | B6

Each binder was assayed against T4, subunit E (Vma4p), N-terminal MBP fusion in the same assay as above. Details: both partners purified.

binding result | Binder
binds | B16
binds | B17
binds | B8
binds | B18
binds | B19
binds | B10
binds | B20
binds | B12
binds | B13
binds | B21
binds | B14
binds | B22
binds | B23
binds | B24

The binders below were run against T5, EG heterodimer (untagged subunit E with …) in the same assay as above. Details: both partners purified.

binding result | Binder
binds | B25
binds | B18
binds | B26
binds | B27
binds | B5
binds | B28
